# Experimental data taken from US20140323691A1.
# Tests used:
# [1] = target: BxpB (exosporium basal layer protein) (Bacillus anthracis)
# [2] = target: BxpB (exosporium basal layer protein) (Bacillus anthracis); test: densitometry of anti-BxpB and anti-eGFP immunoblots
# [3] = target: BxpB (exosporium basal layer protein) (Bacillus anthracis); test: LC-MS/MS and immunoblot analyses of BxpB-BclA and BxpB-(BclA NTD-eGFP) complexes
Substance,frequency of multiple attachments [1],fusion proteins per molecule of BxpB (band 1) (per molecule of BxpB) [2],fusion proteins per molecule of BxpB (band 2) (per molecule of BxpB) [2],fusion proteins per molecule of BxpB (band 3) (per molecule of BxpB) [2],NTDs attached to a single molecule of BxpB (per molecule of BxpB) [3]
BclA NTD-enhanced green fluorescence protein (eGFP) fusion protein,18%,1,2,3,
BclA (collagen-like glycoprotein of the Bacillus anthracis exosporium nap),57%,,,,< 3
